This note sets out measurements from article PMC3897377, “Utilizing Nanobody Technology to Target Non-Immunodominant Domains of VAR2CSA” (PLoS ONE, 2014).

First the molecules themselves.
B1: Nb12 (VHH)
VHH: QVQLQESGGGLVQVGGSLRLSCAASGRTFSNYAMGWFRQAPGEEREFVAAISWSDNNTLYTDSVKGRFTISRDNAENTVYLQMNSLEPEDTAVYYCAAGRRPRLRVGLNEFDYWGQGTQVTVSS
notes: from an alpaca immunized with full-length VAR2CSA; pHEN6c vector; also called Nanobody 12; VHH; source: E. coli WK6, periplasmic extract, purified (HisTrap); not shown: His6, C-terminal, kept
B2: Nb10 (VHH)
VHH: QVQLQESGGGLVQAGGSLRLSCAASGRTFSSNLMGWLRQAPGKEREFVAAMSMSGGDTFYADSVKGRFTISRDNAKNMVHLQMNSLKPEDTAIYYCAAADVRLSAYEYDYWGQGTQVTVSS
notes: from an alpaca immunized with full-length VAR2CSA; pHEN6c vector; also called Nanobody 10; VHH; source: E. coli WK6, periplasmic extract, purified (HisTrap); not shown: His6, C-terminal, kept
B3: Nb01 (VHH)
VHH: QVQLQESGGGLVQAGGSLRLSCAASGRTFNSYVMGWFRQAPGKEREFVAAISWSGGNAYYADSVKGRFTISRDNAENTVYLLMNSLKPEDTAVYYCAAALTRLARNEYDYLGQGTQVTVSS
notes: from an alpaca immunized with full-length VAR2CSA; pHEN6c vector; also called Nanobody 01; VHH; source: E. coli WK6, periplasmic extract, purified (HisTrap); not shown: His6, C-terminal, kept
B4: Nb07 (VHH)
VHH: QVQLQESGGGLVQAGGSLRLSCAASGFTFDDYVIGWFRQAPGKEREGVSCISRSDGSTYYADSVKGRFTISSDNAKNTIYLQMNSLKPEDTAVYHCAAAMTHFGLGPGPNEYDYWGQGTQVTVSS
notes: from an alpaca immunized with full-length VAR2CSA; pHEN6c vector; also called Nanobody 07; VHH; source: E. coli WK6, periplasmic extract, purified (HisTrap); not shown: His6, C-terminal, kept
B5: Nb05 (VHH)
VHH: QVQLQESGGGLVQPRGSLRLSCTASERDFGLVVMGWHRQAPGKQRELVAQIGTGGRTNYADSVKGRFTISIDAAKNTVYLQMNNLKPEDTAVYYCNAPLSGIWGQGTQVTVSS
notes: from an alpaca immunized with full-length VAR2CSA; pHEN6c vector; also called Nanobody 05; VHH; source: E. coli WK6, periplasmic extract, purified (HisTrap); not shown: His6, C-terminal, kept
B6: Nb13 (VHH)
VHH: QVQLQESGGGLVQPGGSLRLSCAFSGRTSRNYAMAWFRQAPGKEREFVAATSWNGDITPYGVVVKGRFTISRDNAKSTVYLKMNDLKPEDTAVYYCAAEPRFAPPVVAHEYDYWGRGTQVTVSS
notes: from an alpaca immunized with full-length VAR2CSA; pHEN6c vector; also called Nanobody 13; VHH; source: E. coli WK6, periplasmic extract, purified (HisTrap); not shown: His6, C-terminal, kept
B7: Nb11 (VHH)
VHH: QVQLQESGGGLVQAGGSLRLSCAASGRTFSSYAMGWFRQAPGREREFVALISWSGGSTTYADSVKGRFTISRDNAQNTVYLQMNSLKPEDTAVYYCTAAGSFEGEYDYWGQGTQVTVSS
notes: from an alpaca immunized with full-length VAR2CSA; pHEN6c vector; also called Nanobody 11; VHH; source: E. coli WK6, periplasmic extract, purified (HisTrap); not shown: His6, C-terminal, kept
B8: Nb02 (VHH)
VHH: B7 VHH with R43K, L50F, T59S, Q76K, T97V, A99S
notes: from an alpaca immunized with full-length VAR2CSA; pHEN6c vector; also called Nanobody 02; VHH; source: E. coli WK6, periplasmic extract, purified (HisTrap); not shown: His6, C-terminal, kept
B9: Nb03 (VHH)
VHH: QVQLQESGGGLVQAGGSLRLSCVVSGHTFSGYVMGWFRQAPGKEREFVSSISGYGGITDYADSVKGRFTMSRDNAKNTVYLRMNSLKPEDTAVYYCAVRRSGSSREYDYWGQGTQVTVSS
notes: from an alpaca immunized with full-length VAR2CSA; pHEN6c vector; also called Nanobody 03; VHH; source: E. coli WK6, periplasmic extract, purified (HisTrap); not shown: His6, C-terminal, kept
B10: Nb17 (VHH)
VHH: QVQLQESGGGLVQPGGSLRLSCAASGFTFSGSASWVRQAPGKELEWVSSISGFGGITDYADSVKGRFTISRDNSKNTLYLQNSLKPEDTAVYYCAKGRTGWTSSFLRGQGTQVTVSS
notes: from an alpaca immunized with full-length VAR2CSA; pHEN6c vector; also called Nanobody 17; VHH; source: E. coli WK6, periplasmic extract, purified (HisTrap); not shown: His6, C-terminal, kept
B11: Nb14 (VHH)
VHH: QVQLQESGGGLVQAGGSLRLSCAASGFTLDDYGIGWFRQAPGKEHEGVSSISSGDGSTYYADSVKGRFTISSDNAKNTVYLQNSLKPEDTAVYYCAAGGLHRPLTIATTRGYGIDYWGKGTQVTVSS
notes: from an alpaca immunized with full-length VAR2CSA; pHEN6c vector; also called Nanobody 14; VHH; source: E. coli WK6, periplasmic extract, purified (HisTrap); not shown: His6, C-terminal, kept
B12: Nb06 (VHH)
VHH: QVQLQESGGGLVQAGGSLRLSCAASGFTFDDYAIGWFRQAPGKEREGVSCISSSDGVTYYVDSVKGRFTISSDNAKNTVYLQMNSLKPEDTAVYHCAASPDYYCDAGFLNYGIDYWGEGTQVTVSS
notes: from an alpaca immunized with full-length VAR2CSA; pHEN6c vector; also called Nanobody 06; VHH; source: E. coli WK6, periplasmic extract, purified (HisTrap); not shown: His6, C-terminal, kept
B13: Nb16 (VHH)
VHH: QVQLQESGGGLVQPGGSLRLSCVASGFTFSSVGSWVRQAPGKGLEWVSAISSFSGLRSYADSVKGRFTISRDNAKNTLYLENSLKPEDTAVYYCAKGTVRVGPWLRGQGTQVTVSS
notes: from an alpaca immunized with full-length VAR2CSA; pHEN6c vector; also called Nanobody 16; VHH; source: E. coli WK6, periplasmic extract, purified (HisTrap); not shown: His6, C-terminal, kept

Changes are numbered by the printed parent chain.

For one assay, the target named is T1, DBL1-ID2a protein of VAR2CSA (containing minimal CSA-binding region), baculovirus-produced (Plasmodium falciparum FCR3 (assumed for …, UniProt Q6UDW7, strain)).
T1 construct: DBL1-ID2a; source: baculovirus-produced
The assay can be described thus: far-Western, overlay or dot blot; Western blot: recombinant VAR2CSA domain (0,4 µg/lane) run NON-REDUCED on SDS gel, blotted to nitrocellulose, probed with 50 nM Nb in TBST; rabbit anti-camel and HRP anti-rabbit. The conditions noted are these: both partners purified. A general note: A western blot detects proteins with antibodies after separation by electrophoresis.
Regarding B1, the binding result was “binds”.
On to B2, for which the binding result is recorded as “binds”.
In the case of B3, the binding result is “binds”.
On the same count and under the same terms, for B4 the value was “binds”.

A further assay deals with T2, VAR2CSA DBL3 domain, baculovirus-produced (Plasmodium falciparum FCR3 (implied), UniProt Q6UDW7, strain).
T2 construct: DBL3 domain; also called DBL3X; source: baculovirus expression system, as described in [11], [20]
The assay can be described thus: ELISA; recombinant VAR2CSA protein or domain (50 nM in PBS) coated on MaxiSorp plates overnight at 4°C; Nb 50 nM in 1% skim milk in PBS, 90 min RT; detected with rabbit anti-camel and HRP anti-rabbit, OD 490 nm after 20 min. The conditions noted are these: both partners purified. Background: An ELISA detects its analyte on a solid surface through an enzyme-linked reagent.
As for B1, the binding result is “no binding (tested: 50 nM)”.
With B5, the binding result was “no binding (tested: 50 nM)”.
With B2, the binding result was “no binding (tested: 50 nM)”.
With B6, the binding result is “no binding (tested: 50 nM)”.
With B7, the binding result was “no binding (tested: 50 nM)”.
On the same count and under the same terms, for B8 the value was “no binding (tested: 50 nM)”; for B9, “no binding (tested: 50 nM)”.
Still for that read-out and setting: for B10 the value was “no binding (tested: 50 nM)”; for B3, “no binding (tested: 50 nM)”; for B11, “no binding (tested: 50 nM)”.
Still for that read-out and setting: as for B4, the entry is “no binding (tested: 50 nM)”.
On to B12, for which the binding result is reported as “no binding (tested: 50 nM)”.
On the same count and under the same terms, as for B13, the entry is “no binding (tested: 50 nM)”.

The target of the next assay is T3, VAR2CSA DBL6 domain, baculovirus-produced (Plasmodium falciparum FCR3, UniProt Q6UDW7, strain).
T3 construct: DBL6 domain; also called DBL6ε; source: baculovirus expression system, as described in [11], [20]
The assay is described as above. To be noted: both partners purified.
Take B1: the binding result was “no binding (tested: 50 nM)”.
Still for that read-out and setting: as for B2, the entry is “no binding (tested: 50 nM)”; as for B3, “no binding (tested: 50 nM)”; as for B4, “no binding (tested: 50 nM)”.

A further assay has as its target T4, ID1–ID2a minimal CSA-binding region of VAR2CSA, produced in E. coli (Plasmodium falciparum FCR3, UniProt Q6UDW7, strain).
T4 construct: ID1–ID2a region; also called ID1–ID2a (coli); source: E. coli
Described as above. The conditions noted are these: both partners purified.
In the case of B1, the binding result is on record as “binds”.
Turning to B2, the binding result is recorded as “binds”.
Consider B3, for which the binding result is “binds”.
For B4, the binding result is recorded as “binds”.

The next assay addresses T5, ID1–ID2a minimal CSA-binding region of VAR2CSA, produced in Schneider 2 (S2) cells (Plasmodium falciparum FCR3, UniProt Q6UDW7, strain).
T5 construct: ID1–ID2a region; also called ID1–ID2a (S2); source: Schneider 2 (S2) cells
Described as above. To be noted: both partners purified.
For B1, the binding result is on record as “binds”.
Regarding B2, the binding result is “binds”.
Same read-out and setting: for B3 the value was “binds”; for B4, “binds”.

The target in a further assay is T6, full-length VAR2CSA (FV2) recombinant protein, FCR3 (Plasmodium falciparum FCR3, UniProt Q6UDW7, strain).
T6 construct: VAR2CSA (PfEMP1 family), Plasmodium falciparum strain FCR3, full-length recombinant protein; also called FV2-FCR3; source: recombinant, purified, expressed as described in [33]
Described as above. To be noted: both partners purified.
Take B1: the binding result is on record as “binds”.
Same read-out and setting: as for B5, the entry is “binds”; as for B2, “binds”; as for B6, “binds”.
For B7, the binding result was “binds”.
In the case of B8, the binding result is “binds”.
B9: the binding result is listed as “binds”.
Still for that read-out and setting: as for B10, the entry is “binds”; as for B3, “binds”; as for B11, “binds”.
Same read-out and setting: as for B4, the entry is “binds”; as for B12, “binds”.
Take B13: the binding result is “binds”.

Another assay concerns the target T7, ID1–ID2a minimal CSA-binding region of VAR2CSA, baculovirus-produced (Plasmodium falciparum FCR3, UniProt Q6UDW7, strain).
T7 construct: VAR2CSA, P. falciparum FCR3; ID1–ID2a region encompassing DBL2X with the flanking parts ID1 and ID2; also called ID1–ID2a (BV); source: baculovirus expression system, as described in [11], [20]
The description is as above. To be noted: both partners purified.
On to B1, for which the binding result was “binds”.
On the same count and under the same terms, for B2 the value was “binds”; for B3, “binds”; for B4, “binds”.

In another assay the target is T3, VAR2CSA DBL6 domain, …. Described as above. To be noted: both partners purified. This is another data set of the same source.
In the case of B12, the binding result is “binds”.

The next assay deals with T8, native VAR2CSA on the surface of NF54 infected erythrocytes (Plasmodium falciparum NF54 (VAR2CSA …, UniProt Q8I639, strain)).
T8 construct: VAR2CSA of the P. falciparum parasite line NF54, native protein on infected erythrocytes; also called VAR2CSA-expressing IE (NF54); source: endogenous, on P. falciparum NF54-infected erythrocytes
The assay can be described thus: flow cytometry on cells; late stage VAR2CSA-expressing IE (FCR3, 7201, NF54) incubated with Nb (0,1 mg/ml), 30 min at 4°C; detected with mouse anti-penta-His and FITC anti-mouse; specific recognition defined by an MFI ratio >1.2. To be noted: one partner purified.
For the molecule B1, the binding result is on record as “binds”.
Same read-out and setting: for B5 the value was “binds”.
As for B2, the binding result is “binds”.
Same read-out and setting: as for B7, the entry is “binds”; as for B8, “binds”.
In the case of B9, the binding result is “binds”.
The same measure, in the same setting: as for B10, the entry is “binds”; as for B3, “binds”; as for B11, “binds”.
B4: the binding result is on record as “binds”.
As to B13, the binding result was “binds”.
